Assay [1] deals with T1, cell surface LINGO-1 in CHO-K1-hLINGO-1 cells (Homo sapiens, UniProt Q96FE5).
T1 construct: expressed in transfected cells
T1 sequence (Q96FE5 34-614 isoform Q96FE5-2): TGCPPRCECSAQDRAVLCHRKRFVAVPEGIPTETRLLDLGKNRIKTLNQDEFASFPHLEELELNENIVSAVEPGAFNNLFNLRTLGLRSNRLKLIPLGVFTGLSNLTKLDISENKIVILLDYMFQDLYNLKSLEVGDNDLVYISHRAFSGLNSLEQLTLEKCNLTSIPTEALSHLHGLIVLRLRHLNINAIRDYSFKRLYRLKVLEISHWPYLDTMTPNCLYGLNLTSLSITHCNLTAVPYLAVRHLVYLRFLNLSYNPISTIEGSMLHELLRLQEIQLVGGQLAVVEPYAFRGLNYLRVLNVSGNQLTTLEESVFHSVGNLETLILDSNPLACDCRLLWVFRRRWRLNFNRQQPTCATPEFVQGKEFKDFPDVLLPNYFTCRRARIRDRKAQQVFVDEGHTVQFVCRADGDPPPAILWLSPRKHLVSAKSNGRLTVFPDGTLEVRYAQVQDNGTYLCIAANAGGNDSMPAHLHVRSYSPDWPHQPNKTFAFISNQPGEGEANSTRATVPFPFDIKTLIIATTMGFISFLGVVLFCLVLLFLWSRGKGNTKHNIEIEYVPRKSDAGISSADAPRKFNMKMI
Put plainly: Downregulation of cell surface LINGO-1 (anti-V5 detection, TMB-ELISA). It counts as cell-based. To be noted: 100 nM IgG4, 24 hrs at 37° C., CHO-K1-hLINGO-1 cells (FIG. 6A). The method, then:
A) Untransfected CHO-K1 or CHO-K1-hLINGO-1 cells are incubated at 37° C. for 24 hrs with 100 nM 4784, 4785 and 3207 and LINGO-1 detected at the cell surface by a further incubation at room temperature for 30 min with the anti-V5 antibody. The cells are fixed with 4% PFA, blocked with BSA and bound anti-V5 antibody detected using an anti-mouse-IgG (Fc specific)-POD conjugate that is subsequently developed using a 1-Step™ Turbo TMB ELISA kit. The absorbance at 450 nm is taken as a measure of the amount of LINGO-1 at the cell surface (mean of triplicates±STD). A very low level of anti-V5 antibody binding is observed to untransfected CHO-K1 cells. Incubation of CHO-K1-hLINGO-1 cells with anti-LINGO-1 antibodies but not the control IgG4 3207 result in a significant reduction in the amount of LINGO-1 at the cell surface **p<0.01, one-way ANOVA with a Holm-Sidak comparison to the absorbance following incubation with the control IgG4 3207.
To determine the effect of anti-LINGO-1 antibodies on the amount of cell surface LINGO-1, untransfected CHO-K1 or CHO-K1-hLINGO-1 cells (see Example 1) are incubated at 37° C. for 24 hrs with 100 nM 4784, 4785 or 3207 and cell surface LINGO-1 is subsequently detected with an anti-V5 antibody followed by an anti-mouse IgG (Fc specific)-POD conjugate developed with a 1-Step™ Turbo TMB-ELISA kit (Pierce) (FIG. 6A).
For orientation: ELISA stands for enzyme-linked immunosorbent assay.

The subject of assay [2] is freshly isolated rat OPCs. Put plainly: Primary oligodendrocyte differentiation assay. It counts as cell-based. Conditions: 100 nM IgG4, 3 days in DMEM/CNTF/T3 medium; three independent experiments (FIG. 5). The protocol: A) Freshly isolated OPCs are treated with 100 nM 4784, 4785 or control IgG4 3207 for 3 days in DMEM/CNTF/T3 medium followed by staining with the anti-04 antibody to visualise immature and mature oligodendrocytes (larger, more diffuse labeling) and the nucleic acid dye DAPI (4′,6-diamidin-2′-phenyl-indol-dihydrochloride) to visualise cell nuclei (smaller circular dots). Oligodendrocytes bearing highly arborised and extended processes and myelin sheet-like structures are considered to have a mature morphology and are indicated with white arrows. Anti-LINGO-1 antibody treatment results in an increase in the proportion of O4-positive cells with a mature morphology whereas treatment with control IgG4 3207 has no effect.
B) The proportion of total (left graph) and mature (right graph) oligodendrocytes is quantified in three independent experiments (1, 2, 3). The left bar graph depicts the percentage of DAPI-stained nuclei associated with O4-staining and the right bar graph depicts the percentage of O4-positive cells with a mature morphology (mean of triplicates+STD). […]
Enriched populations of OPCs are isolated from OFA P3 rats. […] To assess the purity of the cultures with respect to the oligodendrocyte lineage, the percentage of cells that are stained with the anti-04 antibody is quantified after 7 days of culture in SATO medium. […]

B1: IgG4 4785: monoclonal human anti-LINGO-1 IgG4 antibody; VL SEQ ID NO: 6, VH SEQ ID NO: 7 (antibody, V domains shown)
VH: QVQLQQSGPGLVKPSQTLSLTCAISGDSVSDNSAAWSWIRQSPGRGLEWLGLIYLRSKWDNDYAVSVKSRITINPDTSKNQFSLQLNSVTPEDTAVYYCARTGRADEFDVWGQGTLVTVSS
VL: DIVLTQPPSVSGAPGQRVTISCSGSSSNIGNNYVSWYQQLPGTAPKLLISRNSKRPSGVPDRFSGSKSGTSASLAITGLQSEDEADYYCSTYDTFSIVFGGGTKLTVLG
modifications: IgG4; 4785 VH; 4785 VL
B1: in assay [1], the “amount of cell surface LINGO-1 (absorbance at 450 nm)” value is given as “significantly downregulate”. The “proportion of oligodendrocytes (O4-positive cells) with a mature morphology” value in assay [2] is “significantly increase”.

B2: IgG4 4784: monoclonal human anti-LINGO-1 IgG4 antibody; VL SEQ ID NO: 4, VH SEQ ID NO: 5 (antibody, V domains shown)
VH: QVQLKESGPALVKPTQTLTLTCTFSGFSLSSSGVGVGWIRQPPGKALEWLAHIGSDDDKYYSTSLKTRLTISKDTSKNQVVLTMTNMDPVDTATYYCARNQQYGDGYPGYFDYWGQGTLVTVSS
VL: DIELTQPPSVSVAPGQTARISCSGDNIGNYYVYWYQQKPGQAPVLVIYEDTNRPSGIPERFSGSNSGNTATLTISGTQAEDEADYYCQSYDNLHEQVFGGGTKLTVLG
modifications: IgG4; 4784 VH; 4784 VL
In the case of B2, the “amount of cell surface LINGO-1 (absorbance at 450 nm)” value in assay [1] is listed as “significantly downregulate”. In addition, the “proportion of oligodendrocytes (O4-positive cells) with a mature morphology” value in assay [2] was “significantly increase”.

The values above are taken from patent US20130071400A1, “LINGO binding molecules and Pharmaceutical Use Thereof” (NOVARTIS AG, priority 2006, published 2013).
